The text below walks through data of patent publication US20140341881.

Data set [1] relates to CFP-LQRAI-YFP-6xHis substrate (peptide E8).
The test system of data set [2] is CFP-LSGGR-YFP-6xHis substrate (peptide E2).
Data set [3] has as its system CFP-LSRDN-YFP-6xHis substrate (peptide E7).
The test system of data set [4] is CFP-NNKLR-YFP-6xHis substrate (peptide E9).
Data set [5] concerns CFP-NQRSS-YFP-6xHis substrate (peptide E5).
Data set [6] has as its system CFP-QRLRD-YFP-6xHis substrate (peptide F11).
The test system of data set [7] is CFP-RGKTN-YFP-6xHis substrate (peptide D9).
Data set [8] relates to CFP-RQTND-YFP-6xHis substrate (peptide C11).
In data set [9] the test system is CFP-VGSLR-YFP-6xHis substrate (peptide G1).
Data set [10] concerns CFP-YQSLN-YFP-6xHis substrate (peptide F10).
Data set [11] relates to T1, CFP-AYGYK-YFP-6xHis substrate (peptide E1).
T1 sequence: GALGGAYGYKGST

Data set [12] concerns T2, CFP-PDRHM-YFP-6xHis substrate (peptide F3).
T2 sequence: GALGGPDRHMGST

Chain of human plasma kallikrein (PK) (chain, as listed by the source): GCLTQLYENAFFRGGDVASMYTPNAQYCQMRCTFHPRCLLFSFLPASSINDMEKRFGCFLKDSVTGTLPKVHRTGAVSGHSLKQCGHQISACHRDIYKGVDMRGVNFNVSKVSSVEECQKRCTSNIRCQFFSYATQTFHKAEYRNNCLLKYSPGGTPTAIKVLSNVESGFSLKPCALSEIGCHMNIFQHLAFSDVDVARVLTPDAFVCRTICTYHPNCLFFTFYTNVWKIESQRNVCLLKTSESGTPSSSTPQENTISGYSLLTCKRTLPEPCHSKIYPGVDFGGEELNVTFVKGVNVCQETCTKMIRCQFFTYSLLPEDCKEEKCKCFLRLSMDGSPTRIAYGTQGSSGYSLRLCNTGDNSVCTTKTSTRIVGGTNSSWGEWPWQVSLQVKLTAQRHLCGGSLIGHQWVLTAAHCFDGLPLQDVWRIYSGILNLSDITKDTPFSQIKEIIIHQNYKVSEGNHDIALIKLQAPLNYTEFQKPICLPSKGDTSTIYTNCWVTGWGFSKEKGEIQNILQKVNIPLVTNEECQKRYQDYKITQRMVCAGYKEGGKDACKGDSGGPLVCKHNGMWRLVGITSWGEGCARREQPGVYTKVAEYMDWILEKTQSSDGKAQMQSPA

As for human kallikrein 2 (hK2), the Kcat/Km in [1] was determined as 25000 M⁻¹ s⁻¹; in [2], 14000 M⁻¹ s⁻¹; in data set [3], 16000 M⁻¹ s⁻¹; in data set [4], 12000 M⁻¹ s⁻¹; in data set [5], 14000 M⁻¹ s⁻¹; in data set [6], 32000 M⁻¹ s⁻¹. Further, the Kcat/Km in data set [7] is 21000 M⁻¹ s⁻¹; in data set [8] it was 23000 M⁻¹ s⁻¹; in data set [9] it was 21000 M⁻¹ s⁻¹.
human kallikrein hK1: the Kcat/Km result in [6] is listed as “L.C”.
Regarding human plasma kallikrein (PK), the Kcat/Km in [1] and in data set [5] was 5000 M⁻¹ s⁻¹ throughout.
In the case of prostate specific antigen (PSA, hK3), in data set [10], the Kcat/Km entry is “L.C”.
As to trypsin, the Kcat/Km came out at 129000 M⁻¹ s⁻¹ in [11]; 2.27e+06 M⁻¹ s⁻¹ in data set [1]; 4.68e+06 M⁻¹ s⁻¹ in data set [2]; 246000 M⁻¹ s⁻¹ in [3]; 384000 M⁻¹ s⁻¹ in [4]; 2.07e+06 M⁻¹ s⁻¹ in [5]. The Kcat/Km in data set [12] is 319000 M⁻¹ s⁻¹; in data set [6], 1.42e+06 M⁻¹ s⁻¹; in data set [7], 2.11e+06 M⁻¹ s⁻¹; in data set [8], 260000 M⁻¹ s⁻¹; in data set [9] it was 270000 M⁻¹ s⁻¹.
